Measured values taken from patent JP2024051908A.

B1: MO2 (antibody, V domains shown)
VH: EVQLVESGGGLVKPGGSLSLSCVASGFTFSDYRMSWIRQAPGKGLEWVSYISSSSGYKDYADSVKGRFTISRDNAKNSLSLQMNSLRVEDTAVYYCARDVGVVTATPGYWGQGVPVSVSS
VL: DIVMTQSPATLSVSPGERATLSCRASQSVGSNLAWYQQKPGQAPRLLIYDTSTRATGVPARFSGSGSGTDFTLTISSLQSEDFAVYLCHQYDQWPPAFGPGTRVDIK
B2: MO1 (antibody, V domains shown)
VH: EVQLVESGGGMVQPGRSLRLSCAASGFTFDDYAMHWVRQIPGKGLEWVSGISWNSGDIGYADSVKGRFTISRDNAKNSLHLQMNSLRAEDTALYYCAKDKTYDSPGYFLNSFDYWGQGTLVTVSS
VL: DIQMTQSPSSLSASVGDRVTITCRASQGISSYLVWYQQKPGKAPKFLIYAASTLQSGVPSRFSGSGSGTDFTLTISSLQPEDFATYYCQQLYSYPITFGQGTRLEIK

Key:
[1] = target: BA.2スパイクRBD (SARS-CoV-2 Omicron BA.2)
[2] = target: BA.5スパイクRBD (SARS-CoV-2 Omicron BA.5)

Row | Binder | Kd [1] [nM] | Kd [2] [nM]
1 | B1 | 2 | –
2 | B2 | 3.3 | 11
